Results reported in PMC12702981, “Population pharmacokinetics of efpeglenatide in individuals with obesity and with type 2 diabetes” (Frontiers in Pharmacology, 2025).
Marks after values point to notes of the source that are not given here.

Columns and labels:
[1] = ref Geiser et al., 2016; cited from earlier work
Description: This finding is aligned with the pharmacokinetic properties of Fc-fusion proteins, in which neonatal Fc receptor (FcRn)-mediated recycling limits proteolytic catabolism and prolongs systemic residence ([Richter and Jacobsen, 2014]).

[2] = human, in vivo
Description: The population PK analysis was performed based on pooled data from one phase 1 and five phase 2 studies of efpeglenatide. […] Dosing regimens ranged from once weekly (QW) to every other week (Q2W) and once monthly (QM) subcutaneous administration.
The pooled dataset comprised six clinical studies (five studies in patients with T2DM and one study in obesity). A total of 3,596 plasma efpeglenatide concentration measurement were collected from 498 subjects across six clinical studies at prespecified time points.
All samples were analyzed at certified laboratories using validated analytical method. Serum concentrations of efpeglenatide were quantified using a validated Enzyme-Linked Immunosorbent Assay (ELISA) method.
For the PK analysis, 3,316 post-dose plasma concentrations above the lower limit of quantification (LLOQ) were used in the model estimation. All pre-dose concentrations before the first administration were excluded from the dataset. Post-dose samples below the limit of quantification (BLQ) were treated as missing (i.e., not included in the analysis). In total, 117 pre-dose samples (3.25%) and 153 post-dose samples (4.0%) were BLQ.
The base PK model evaluation was begun with a one-compartment disposition model with first-order elimination, with additional refinement to better characterize the absorption phase. […] The first one of the two divided doses was described as the first order absorption after bolus doses into depot compartment, capturing the first peak during the absorption phase. The second part of the dose was introduced to describe the second peak with time delay during absorption phase, which was described using a transit compartment model ([Savic et al., 2007]). […] After the absorption model was established, various compartment models were evaluated.
The transit compartment model describes the delay in absorption as the sequential passage of the drug through a chain of transit compartments, each connected by a first-order transit rate constant (Ktr). The number of transit compartments (n) and the mean transit time (MTT) were estimated from the data, with Ktr calculated as (n+1)/MTT. Drug exiting the final transit compartment entered the absorption compartment and was transferred to the central compartment via first-order absorption, as described by Equations 1–3.
The amount of drug administered subcutaneously (Asc) in the depot, central compartment (Ac) and peripheral compartment (Ap) were described using the following differential Equations 4–6: dAsc/dt=Dose·BIOA1+Dose·BIOA2·Ktr·t^n·e^−Ktr·t/2π·n^n+0.5·e^−n−ka·Asc (4) dAc/dt=ka·Asc−Ac/Vc·CL−Ac/Vc·Q+Ap/Vp·Q (5) dAp/dt=Ac/Vc·Q−Ap/Vp·Q (6)
To confine the estimated fraction values to the range between 0 and 1 and to allow implementation of interindividual variability, a logit transformation was applied. BIOA1 and BIOA2 represent the fractions of the administered dose entering the depot compartment via the bolus administration route and the delayed absorption route, respectively. The transformation was defined as shown in Equation 7 ([Adedokun et al., 2020]): BIOA1=e^BIOF/1+e^BIOF,BIOA2=1/1+e^BIOF (7) where BIOF is an unbounded parameter ( −∞∼∞ ) representing the logit-transformed value of BIOA1, and BIOA2 = 1-BIOA1
The population PK modeling analysis was performed using NONMEM version 7.5 (ICON Development Solutions, Hanover, MD, United States). The first-order conditional estimation method with interaction (FOCEI) was used to approximate the marginal likelihood and facilitate estimation of population model parameters.

[3] = ref Yoon et al., 2020; cited from earlier work
Description: Gastrointestinal (GI) adverse events are the most frequent class-related tolerability issues with GLP-1 receptor agonists, and stepwise dose-escalation regimens are commonly used to mitigate these events ([U.S. Food and Drug Administration, 2014]; [Davies et al., 2022]). […] Efpeglenatide has shown an adverse event profile consistent with this drug class ([Yoon et al., 2020]; [Gerstein et al., 2021]). The model-derived effective half- ...

[4] = patients with T2DM; ref Gerstein et al., 2021; cited from earlier work

Substance | CL, clearance [1] [L/h] | BIOA1, dose fraction absorbed via the first-order pathway [2] | BIOA2, dose fraction absorbed via the transit-compartment pathway [2] | BIOF, logit parameter expressing the fraction of dose absorbed via the first-order and transit pathway [2] | CL/F in T2DM, clearance for patients with T2DM [2] | CL/F in obesity, clearance for obesity [2] | Covariate effect (θ) of body weight on CL/F [2] | Covariate effect (θ) of body weight on ka [2] | Expected time to steady state [2] | Higher clearance (CL/F) in T2DM than in obesity [2] [%] | MTT, mean transit time [2] | Model-derived effective half-life [2] [h] | N, number of transit compartments [2] | VSS [2] | Q/F, inter-compartment clearance ([2]; sc) | VC/F, volume of the central compartment ([2]; sc) | VP/F, volume of the peripheral compartment ([2]; sc) | ka, absorption rate constant ([2]; sc) | Clinically reported half-life [3] [h] | Weight loss [4]
dulaglutide: another Fc-fusion GLP-1 receptor agonist | 0.059 |  |  |  |  |  |  |  |  |  |  |  |  |  |  |  |  |  |  | 
efpeglenatide |  | 0.248 ^a | 0.752 ^b | −1.11 [27.59] | 0.044 [1.50] L/h | 0.032 [1.79] L/h | 0.964 [6.75] | −0.927 [14.24] | ≈ 4 weeks | 38 | 2.680 [13.47] hour | 140 to 170 | 5.520 [22.28] | ≈ 6.8 L | 0.073 [11.14] L/h | 2.80 [7.39] L | 3.96 [6.57] L | 0.006 [4.33] 1/h | 134 to 180 | 6%–7%
